# Reference: the RNAGym collection of RNA variant scans (doi:10.7554/elife.80360)
# B1: Twister Ribozyme (parent)
# chain: AACACUGCCAAUGCCGGUCCCAAGCCCGGAUAAAAGUGGAGGGGGCGG
# Variants of: B1
# Test: self-cleavage, relative activity (ratio to wild type); higher = more cleavage; co-transcriptional
row,Variant,self-cleavage
1,AACACUGCCAAUGCCGGUCCCAAGCCCGGAUAAAAGCAGAGGGGGCGG [U37C G38A],0.166
2,AACACUGCCAAUGCCGGUCCCAAGCCCGGAUAAAAGGCGAGGGGGCGG [U37G G38C],0.208
3,AACACUGCCAAUGCCGGUCCCAAGCCCGGAUAAAAGUAGAGGAGGCGG [G38A G43A],0.19
4,AACACUGCCAAUGCCGGUCCCAAGCCCGGAUAAAAGUAGAGGCGGCGG [G38A G43C],0.148
5,AACACUGCCAAUGCCGGUCCCAAGCCCGGAUAAAAGUCGAGGCGGCGG [G38C G43C],0.137
6,AACACUGCCAAUGCCGGUCCCAAGCCCGGAUAAAAGUCGAGGAGGCGG [G38C G43A],0.149
7,AACACUGCCAAUGCCGGUCCCAAGCCCGGAUAAAAGUCGAGGUGGCGG [G38C G43U],0.242
8,AACACUGCCAAUGCCGGUCCCAAGCCCGGAUAAAAGUCGAGCGGGCGG [G38C G42C],0.238
9,AACACUGCCAAUGCCGGUCCCAAGCCCGGAUAAAAGUCGAGUGGGCGG [G38C G42U],0.183
10,AACACUGCCAAUGCCGGUCCCAAGCCCGGAUAAAAGUCGAGGGGCCGG [G38C G45C],0.473
11,AACACUGCCAAUGCCGGUCCCAAGCCCGGAUAAAAGUCGAGGGGUCGG [G38C G45U],0.719
12,AACACUGCCAAUGCCGGUCCCAAGCCCGGAUAAAAGAGGAGGUGGCGG [U37A G43U],0.186
13,AACACUGCCAAUGCCGGUCCCAAGCCCGGAUAAAAGUUGAGGGGGUGG [G38U C46U],0.864
14,AACACUGCCAAUGCCGGUCCCAAGCCCGGAUAAAAGUUGAGGGGGGGG [G38U C46G],0.818
15,AACACUGCCAAUGCCGGUCCCAAGCCCGGAUAAAAGAGGAGGGGCCGG [U37A G45C],0.323
16,AACACUGCCAAUGCCGGUCCCAAGCCCGGAUAAAAGUUGAGGGGGCGU [G38U G48U],1.05
17,AACACUGCCAAUGCCGGUCCCAAGCCCGGAUAAAAGUUGAGGGGGCGA [G38U G48A],0.854
18,AACACUGCCAAUGCCGGUCCCAAGCCCGGAUAAAAGGGGAGGAGGCGG [U37G G43A],0.13
19,AACACUGCCAAUGCCGGUCCCAAGCCCGGAUAAAAGGGGAGGUGGCGG [U37G G43U],0.173
20,AACACUGCCAAUGCCGGUCCCAAGCCCGGAUAAAAGAGGAGGGGGCGC [U37A G48C],0.865
21,AACACUGCCAAUGCCGGUCCCAAGCCCGGAUAAAAGAGGAGGGGGCGA [U37A G48A],0.797
22,AACACUGCCAAUGCCGGUCCCAAGCCCGGAUAAAAGUUGAGGGCGCGG [G38U G44C],0.829
23,AACACUGCCAAUGCCGGUCCCAAGCCCGGAUAAAAGUUGAGGGAGCGG [G38U G44A],0.811
24,AACACUGCCAAUGCCGGUCCCAAGCCCGGAUAAAAGUCGAUGGGGCGG [G38C G41U],0.304
25,AACACUGCCAAUGCCGGUCCCAAGCCCGGAUAAAAGUCGACGGGGCGG [G38C G41C],0.181
26,AACACUGCCAAUGCCGGUCCCAAGCCCGGAUAAAAGUCGAAGGGGCGG [G38C G41A],0.295
27,AACACUGCCAAUGCCGGUCCCAAGCCCGGAUAAAAGUAGAUGGGGCGG [G38A G41U],0.315

row,Variant,self-cleavage
1,AACACUGCCAAUGCCGGUCCCAAGCCCGGAUAAAAGUAGACGGGGCGG [G38A G41C],0.157
2,AACACUGCCAAUGCCGGUCCCAAGCCCGGAUAAAAGAGGAGGGCGCGG [U37A G44C],0.821
3,AACACUGCCAAUGCCGGUCCCAAGCCCGGAUAAAAGAGGAGGGUGCGG [U37A G44U],0.755
4,AACACUGCCAAUGCCGGUCCCAAGCCCGGAUAAAAGAGGAGGGAGCGG [U37A G44A],0.873
5,AACACUGCCAAUGCCGGUCCCAAGCCCGGAUAAAAGUUGAGGGGGCAG [G38U G47A],0.564
6,AACACUGCCAAUGCCGGUCCCAAGCCCGGAUAAAAGCGGAGGGGACGG [U37C G45A],0.691
7,AACACUGCCAAUGCCGGUCCCAAGCCCGGAUAAAAGCGGAGGGGCCGG [U37C G45C],0.26
8,AACACUGCCAAUGCCGGUCCCAAGCCCGGAUAAAAGUAGGGGGGGCGG [G38A A40G],0.131
9,AACACUGCCAAUGCCGGUCCCAAGCCCGGAUAAAAGUAGUGGGGGCGG [G38A A40U],0.118
10,AACACUGCCAAUGCCGGUCCCAAGCCCGGAUAAAAGCGGAGCGGGCGG [U37C G42C],0.196
11,AACACUGCCAAUGCCGGUCCCAAGCCCGGAUAAAAGCGGAGAGGGCGG [U37C G42A],0.105
12,AACACUGCCAAUGCCGGUCCCAAGCCCGGAUAAAAGCGGAGUGGGCGG [U37C G42U],0.127
13,AACACUGCCAAUGCCGGUCCCAAGCCCGGAUAAAAGGGGAGGGGGCGU [U37G G48U],0.856
14,AACACUGCCAAUGCCGGUCCCAAGCCCGGAUAAAAGUUAAGGGGGCGG [G38U G39A],0.185
15,AACACUGCCAAUGCCGGUCCCAAGCCCGGAUAAAAGUUCAGGGGGCGG [G38U G39C],0.14
16,AACACUGCCAAUGCCGGUCCCAAGCCCGGAUAAAAGGGGAGGGUGCGG [U37G G44U],0.805
17,AACACUGCCAAUGCCGGUCCCAAGCCCGGAUAAAAGUAGAGGGGGCUG [G38A G47U],0.814
18,AACACUGCCAAUGCCGGUCCCAAGCCCGGAUAAAAGUAGAGGGGGCCG [G38A G47C],0.522
19,AACACUGCCAAUGCCGGUCCCAAGCCCGGAUAAAAGGGGAGCGGGCGG [U37G G42C],0.103
20,AACACUGCCAAUGCCGGUCCCAAGCCCGGAUAAAAGGGGAGUGGGCGG [U37G G42U],0.163
21,AACACUGCCAAUGCCGGUCCCAAGCCCGGAUAAAAGGGGAGAGGGCGG [U37G G42A],0.171
22,AACACUGCCAAUGCCGGUCCCAAGCCCGGAUAAAAGUAGAGGGGGCGU [G38A G48U],1.1
23,AACACUGCCAAUGCCGGUCCCAAGCCCGGAUAAAAGUUGUGGGGGCGG [G38U A40U],0.116
24,AACACUGCCAAUGCCGGUCCCAAGCCCGGAUAAAAGUUGGGGGGGCGG [G38U A40G],0.101
25,AACACUGCCAAUGCCGGUCCCAAGCCCGGAUAAAAGUUGCGGGGGCGG [G38U A40C],0.127
26,AACACUGCCAAUGCCGGUCCCAAGCCCGGAUAAAAGGGGGGGGGGCGG [U37G A40G],0.155
27,AACACUGCCAAUGCCGGUCCCAAGCCCGGAUAAAAGCGUAGGGGGCGG [U37C G39U],0.11
